# According to patent publication US20250339531A1, “DUX4 POLYPEPTIDES AND NUCLEIC ACIDS FOR TREATING INFLAMMATORY AND AUTOIMMUNE CONDITIONS” (Fred Hutchinson Cancer Center, priority 2021, published 2025):
# Legend:
# Test in all cases: anti-FLAG co-IP LC-MS, exp 4, +Dox +IFNG
# [1] = target: Importin subunit alpha-5 (Homo sapiens) (UniProt P52294)
# [2] = target: T-complex protein 1 subunit gamma (Homo sapiens) (UniProt P49368)
# [3] = target: Heat shock protein HSP 90-beta (Homo sapiens) (UniProt P08238)
# [4] = target: Heat shock cognate 71 kDa protein (Homo sapiens) (UniProt P11142)
# [5] = target: Dynactin subunit 1 (Homo sapiens) (UniProt Q14203)
# [6] = target: Coronin-1C (Homo sapiens) (UniProt Q9ULV4)
# [7] = target: 60 kDa heat shock protein, mitochondrial (Homo sapiens) (UniProt P10809)
# [8] = target: 60S ribosomal protein L11 (Homo sapiens) (UniProt P62913)
# [9] = target: Guanine nucleotide-binding protein G(i) subunit alpha-2 (Homo sapiens) (UniProt P04899)
# [10] = target: Galectin-7 (Homo sapiens) (UniProt P47929)
# [11] = target: Plasminogen activator inhibitor 1 (Homo sapiens) (UniProt P05121)
# [12] = target: 40S ribosomal protein S4, X isoform (Homo sapiens) (UniProt P62701)
# [13] = target: Src substrate cortactin (Homo sapiens) (UniProt Q14247)
# [14] = target: 40S ribosomal protein S3a (Homo sapiens) (UniProt P61247)
# [15] = target: Filamin-A (Homo sapiens) (UniProt P21333)
# [16] = target: Endoplasmic reticulum chaperone BiP (Homo sapiens) (UniProt P11021)
# [17] = target: Tubulin beta chain (Homo sapiens) (UniProt P07437)
# [18] = target: Protein disulfide-isomerase (Homo sapiens) (UniProt P07237)
# [19] = target: 40S ribosomal protein S8 (Homo sapiens) (UniProt P62241)
# [20] = target: T-complex protein 1 subunit theta (Homo sapiens) (UniProt P50990)
# [21] = target: Elongation factor 1-delta (Homo sapiens)
# [22] = target: ADP/ATP translocase 2 (Homo sapiens) (UniProt P05141)
# [23] = target: Heterogeneous nuclear ribonucleoprotein K (Homo sapiens) (UniProt P61978)
# [24] = target: Elongation factor 1-alpha 1 (Homo sapiens) (UniProt P68104)
# [25] = target: Capping protein (Actin filament) muscle Z-line, beta, isoform CRA_d (Homo sapiens) (UniProt B1AK88)
# [26] = target: AP-2 complex subunit alpha-1 (Homo sapiens) (UniProt O95782)
# [27] = target: Neuroblast differentiation-associated protein AHNAK (Homo sapiens) (UniProt Q09666)
# [28] = target: Desmin (Homo sapiens) (UniProt P17661)
# [29] = target: Dolichyl-diphosphooligosaccharide--protein glycosyltransferase subunit 1 (Homo sapiens) (UniProt P04843)
# [30] = target: 60S acidic ribosomal protein P0 (Homo sapiens) (UniProt P05388)
# [31] = target: Heat shock 70 kDa protein 1B (Homo sapiens) (UniProt P0DMV9)
# [32] = target: Ubiquitin carboxyl-terminal hydrolase 11 (Homo sapiens) (UniProt P51784)
# [33] = target: Drebrin (Homo sapiens) (UniProt Q16643)
# [34] = target: Serine/threonine-protein phosphatase 2A 65 kDa regulatory subunit A alpha isoform (Homo sapiens) (UniProt P30153)
# [35] = target: cAMP-dependent protein kinase type I-alpha regulatory subunit (Homo sapiens) (UniProt P10644)
# [36] = target: Importin subunit beta-1 (Homo sapiens) (UniProt Q14974)
# Chain of 60 kDa heat shock protein, mitochondrial (Homo sapiens) (P10809 27-573 limits assumed): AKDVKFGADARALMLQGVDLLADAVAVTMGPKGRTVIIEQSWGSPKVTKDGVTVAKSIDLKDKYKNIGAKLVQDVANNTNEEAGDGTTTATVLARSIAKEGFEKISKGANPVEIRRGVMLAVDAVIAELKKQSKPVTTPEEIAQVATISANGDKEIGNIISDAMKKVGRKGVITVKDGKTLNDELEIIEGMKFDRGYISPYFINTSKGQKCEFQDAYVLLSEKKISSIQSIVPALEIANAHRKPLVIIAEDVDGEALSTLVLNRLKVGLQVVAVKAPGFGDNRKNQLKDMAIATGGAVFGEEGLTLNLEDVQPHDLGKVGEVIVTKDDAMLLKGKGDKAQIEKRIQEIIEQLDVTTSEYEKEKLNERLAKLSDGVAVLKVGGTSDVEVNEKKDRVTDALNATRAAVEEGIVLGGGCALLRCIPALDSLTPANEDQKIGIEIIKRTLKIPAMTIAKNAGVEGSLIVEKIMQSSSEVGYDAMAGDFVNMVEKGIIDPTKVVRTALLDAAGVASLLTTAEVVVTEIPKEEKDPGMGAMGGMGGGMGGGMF
# Chain of Ubiquitin carboxyl-terminal hydrolase 11 (Homo sapiens) (P51784 whole entry): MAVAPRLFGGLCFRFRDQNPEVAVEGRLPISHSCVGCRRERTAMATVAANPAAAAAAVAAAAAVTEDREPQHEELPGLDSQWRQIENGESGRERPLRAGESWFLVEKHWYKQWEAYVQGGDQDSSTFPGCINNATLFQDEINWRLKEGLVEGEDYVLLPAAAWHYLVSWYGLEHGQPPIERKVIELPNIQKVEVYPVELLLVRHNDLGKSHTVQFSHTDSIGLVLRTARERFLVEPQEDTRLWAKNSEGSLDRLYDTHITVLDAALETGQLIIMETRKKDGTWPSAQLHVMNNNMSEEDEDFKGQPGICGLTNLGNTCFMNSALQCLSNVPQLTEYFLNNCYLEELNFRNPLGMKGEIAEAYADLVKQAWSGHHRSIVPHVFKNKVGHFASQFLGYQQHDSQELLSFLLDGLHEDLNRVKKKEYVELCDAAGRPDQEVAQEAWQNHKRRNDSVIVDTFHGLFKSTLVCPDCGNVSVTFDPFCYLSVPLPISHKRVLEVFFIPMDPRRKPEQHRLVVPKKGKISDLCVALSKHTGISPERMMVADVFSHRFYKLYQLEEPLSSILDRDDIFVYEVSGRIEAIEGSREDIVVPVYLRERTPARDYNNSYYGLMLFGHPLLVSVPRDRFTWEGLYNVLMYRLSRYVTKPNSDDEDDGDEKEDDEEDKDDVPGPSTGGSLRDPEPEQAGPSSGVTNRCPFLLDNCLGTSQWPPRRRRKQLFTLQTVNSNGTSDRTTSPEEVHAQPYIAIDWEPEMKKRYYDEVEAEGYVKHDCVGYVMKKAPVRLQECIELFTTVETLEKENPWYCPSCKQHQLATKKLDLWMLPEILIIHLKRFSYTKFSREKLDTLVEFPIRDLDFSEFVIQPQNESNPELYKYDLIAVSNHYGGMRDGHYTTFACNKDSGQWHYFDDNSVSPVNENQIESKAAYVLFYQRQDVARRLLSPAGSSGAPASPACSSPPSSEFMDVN
# Chain of Tubulin beta chain (Homo sapiens) (P07437 whole entry): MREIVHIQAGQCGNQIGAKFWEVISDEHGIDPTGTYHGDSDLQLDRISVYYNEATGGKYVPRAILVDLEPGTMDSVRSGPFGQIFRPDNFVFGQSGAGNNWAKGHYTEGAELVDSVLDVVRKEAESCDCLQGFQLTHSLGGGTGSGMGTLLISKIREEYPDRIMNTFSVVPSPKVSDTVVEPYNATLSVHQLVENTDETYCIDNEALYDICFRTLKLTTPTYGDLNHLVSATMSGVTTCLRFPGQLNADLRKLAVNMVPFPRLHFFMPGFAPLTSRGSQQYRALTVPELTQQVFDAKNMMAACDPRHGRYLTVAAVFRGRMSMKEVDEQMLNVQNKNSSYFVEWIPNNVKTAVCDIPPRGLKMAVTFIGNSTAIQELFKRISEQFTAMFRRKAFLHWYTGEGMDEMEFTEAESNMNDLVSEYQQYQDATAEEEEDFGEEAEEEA
# Chain of Filamin-A (Homo sapiens) (P21333 2-2647 limits assumed): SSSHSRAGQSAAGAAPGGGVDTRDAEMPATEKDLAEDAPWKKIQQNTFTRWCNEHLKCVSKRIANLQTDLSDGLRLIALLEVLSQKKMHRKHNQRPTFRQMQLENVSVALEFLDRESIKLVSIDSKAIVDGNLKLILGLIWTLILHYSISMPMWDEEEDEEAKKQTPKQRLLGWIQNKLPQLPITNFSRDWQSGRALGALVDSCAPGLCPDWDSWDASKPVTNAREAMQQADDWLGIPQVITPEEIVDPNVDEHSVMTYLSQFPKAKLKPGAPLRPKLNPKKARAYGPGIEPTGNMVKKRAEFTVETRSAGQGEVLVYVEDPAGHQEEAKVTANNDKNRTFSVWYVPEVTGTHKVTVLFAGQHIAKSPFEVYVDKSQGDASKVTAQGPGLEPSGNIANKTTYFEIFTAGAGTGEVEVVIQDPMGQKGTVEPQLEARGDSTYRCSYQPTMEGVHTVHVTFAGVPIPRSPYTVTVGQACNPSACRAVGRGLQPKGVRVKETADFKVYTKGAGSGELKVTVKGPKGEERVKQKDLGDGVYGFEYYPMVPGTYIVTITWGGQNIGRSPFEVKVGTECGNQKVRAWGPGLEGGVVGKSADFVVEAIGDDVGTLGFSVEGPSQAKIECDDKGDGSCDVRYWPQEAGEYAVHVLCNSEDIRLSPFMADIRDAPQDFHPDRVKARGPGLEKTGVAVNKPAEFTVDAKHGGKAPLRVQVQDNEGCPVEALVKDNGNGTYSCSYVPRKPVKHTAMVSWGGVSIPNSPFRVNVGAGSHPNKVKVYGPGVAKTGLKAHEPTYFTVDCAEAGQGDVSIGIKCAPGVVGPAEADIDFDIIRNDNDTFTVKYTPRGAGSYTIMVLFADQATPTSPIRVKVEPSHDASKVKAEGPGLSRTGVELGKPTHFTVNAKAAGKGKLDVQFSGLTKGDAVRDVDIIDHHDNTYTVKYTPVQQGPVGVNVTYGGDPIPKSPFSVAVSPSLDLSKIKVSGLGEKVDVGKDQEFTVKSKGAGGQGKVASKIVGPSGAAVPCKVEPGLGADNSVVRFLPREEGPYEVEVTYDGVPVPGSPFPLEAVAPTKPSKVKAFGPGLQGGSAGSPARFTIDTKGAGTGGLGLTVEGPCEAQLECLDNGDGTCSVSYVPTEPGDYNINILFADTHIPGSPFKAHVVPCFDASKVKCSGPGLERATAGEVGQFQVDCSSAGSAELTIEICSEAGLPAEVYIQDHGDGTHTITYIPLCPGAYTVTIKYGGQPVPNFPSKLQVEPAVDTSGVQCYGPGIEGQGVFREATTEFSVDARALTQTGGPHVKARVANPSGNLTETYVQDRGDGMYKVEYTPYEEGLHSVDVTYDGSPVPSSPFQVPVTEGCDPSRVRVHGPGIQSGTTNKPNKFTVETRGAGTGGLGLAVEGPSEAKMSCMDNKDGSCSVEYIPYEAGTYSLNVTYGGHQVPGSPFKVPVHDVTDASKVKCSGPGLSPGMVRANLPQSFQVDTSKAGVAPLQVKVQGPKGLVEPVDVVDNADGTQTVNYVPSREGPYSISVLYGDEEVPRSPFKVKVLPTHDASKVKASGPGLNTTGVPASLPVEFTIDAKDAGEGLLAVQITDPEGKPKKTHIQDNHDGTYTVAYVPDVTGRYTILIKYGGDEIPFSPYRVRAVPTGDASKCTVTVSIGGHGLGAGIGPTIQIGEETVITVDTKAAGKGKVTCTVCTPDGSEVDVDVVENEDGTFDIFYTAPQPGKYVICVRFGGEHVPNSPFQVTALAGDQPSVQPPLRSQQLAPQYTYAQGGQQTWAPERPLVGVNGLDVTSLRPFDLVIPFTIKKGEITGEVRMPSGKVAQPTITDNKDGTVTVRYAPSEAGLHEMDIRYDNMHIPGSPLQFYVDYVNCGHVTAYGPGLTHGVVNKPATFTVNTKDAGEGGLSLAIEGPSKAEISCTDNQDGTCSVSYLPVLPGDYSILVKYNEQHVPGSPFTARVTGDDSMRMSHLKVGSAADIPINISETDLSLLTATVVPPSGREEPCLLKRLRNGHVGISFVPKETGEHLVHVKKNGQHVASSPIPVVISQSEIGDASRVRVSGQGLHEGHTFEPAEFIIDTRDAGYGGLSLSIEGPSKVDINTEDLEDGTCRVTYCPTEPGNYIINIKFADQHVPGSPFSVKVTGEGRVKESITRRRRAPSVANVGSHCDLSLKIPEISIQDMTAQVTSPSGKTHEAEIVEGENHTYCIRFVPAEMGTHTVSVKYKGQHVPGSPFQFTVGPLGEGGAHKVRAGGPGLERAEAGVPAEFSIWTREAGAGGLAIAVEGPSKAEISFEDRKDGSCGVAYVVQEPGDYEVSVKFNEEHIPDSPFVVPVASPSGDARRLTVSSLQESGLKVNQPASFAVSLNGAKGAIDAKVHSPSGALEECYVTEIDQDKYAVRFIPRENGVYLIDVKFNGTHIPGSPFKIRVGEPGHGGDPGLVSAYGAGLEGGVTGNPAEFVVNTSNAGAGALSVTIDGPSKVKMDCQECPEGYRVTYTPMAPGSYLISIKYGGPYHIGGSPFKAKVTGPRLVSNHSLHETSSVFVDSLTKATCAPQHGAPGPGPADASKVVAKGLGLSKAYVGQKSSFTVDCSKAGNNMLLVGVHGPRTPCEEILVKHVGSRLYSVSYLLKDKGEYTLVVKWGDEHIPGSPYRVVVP
# Chain of cAMP-dependent protein kinase type I-alpha regulatory subunit (Homo sapiens) (P10644 whole entry): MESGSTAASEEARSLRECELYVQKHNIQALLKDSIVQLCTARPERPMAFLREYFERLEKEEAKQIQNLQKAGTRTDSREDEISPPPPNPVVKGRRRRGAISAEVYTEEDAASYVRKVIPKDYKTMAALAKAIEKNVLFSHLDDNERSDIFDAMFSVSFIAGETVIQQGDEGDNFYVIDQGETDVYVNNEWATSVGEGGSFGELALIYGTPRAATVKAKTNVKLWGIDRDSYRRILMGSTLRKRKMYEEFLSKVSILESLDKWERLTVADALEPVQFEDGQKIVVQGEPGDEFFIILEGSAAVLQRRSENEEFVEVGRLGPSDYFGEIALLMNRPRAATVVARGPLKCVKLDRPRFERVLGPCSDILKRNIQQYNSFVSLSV
substance,measurement,setting,value
i3XFLAG-NLS-CTDaa154-424,PSMs,[1],2 PSMs
same,PSMs,[2],2 PSMs
same,PSMs,[3],10 PSMs
same,PSMs,[4],105 PSMs
same,PSMs,[5],2 PSMs
same,PSMs,[6],7 PSMs
same,PSMs,[7],5 PSMs
same,PSMs,[8],3 PSMs
same,PSMs,[9],11 PSMs
same,PSMs,[10],6 PSMs
same,PSMs,[11],3 PSMs
same,PSMs,[12],3 PSMs
same,PSMs,[13],5 PSMs
same,PSMs,[14],2 PSMs
same,PSMs,[15],10 PSMs
same,PSMs,[16],44 PSMs
same,PSMs,[17],110 PSMs
same,PSMs,[18],14 PSMs
same,PSMs,[19],2 PSMs
same,PSMs,[20],3 PSMs
same,PSMs,[21],11 PSMs
same,PSMs,[22],6 PSMs
same,PSMs,[23],6 PSMs
same,PSMs,[24],9 PSMs
same,PSMs,[25],11 PSMs
same,PSMs,[26],2 PSMs
same,PSMs,[27],1 PSMs
same,PSMs,[28],12 PSMs
same,PSMs,[29],2 PSMs
same,PSMs,[30],36 PSMs
same,PSMs,[31],29 PSMs
same,PSMs,[32],2 PSMs
same,PSMs,[33],33 PSMs
same,PSMs,[34],2 PSMs
same,PSMs,[35],3 PSMs
same,PSMs,[36],3 PSMs
